Reference: paper PMC12770486

B1: Apt1 (ssDNA)
DNA: GGGGCGGGGCGGGGC
B2: Apt2 (ssDNA)
DNA: GGGGGGGGGGGGGGG
B3: rcApt Texas Red (ssDNA)
DNA: GCCCCGCCCCGCCCC
modifications: locked bases at both ends stated for in-cell assays; unclear for FLIM
B4: Apt3 (ssDNA)
DNA: CGGCGCGGCGCGGCG
B5: Apt4 (ssDNA)
DNA: GCGGGGGCGGGG
B6: Apt5 (ssDNA)
DNA: CGGGCGGGCGGG
B7: rcApt (ssDNA)
DNA: GCCCCGCCCCGCCCC
B8: Apt1 Texas Red (ssDNA)
DNA: GGGGCGGGGCGGGGC
modifications: locked bases at both ends stated for in-cell assays; unclear for FLIM

Key:
RAD51 [1] = molecular target: T1, RAD51 (Homo sapiens, UniProt Q06609 1-339); assay: BLI
T1 sequence (Q06609 whole entry): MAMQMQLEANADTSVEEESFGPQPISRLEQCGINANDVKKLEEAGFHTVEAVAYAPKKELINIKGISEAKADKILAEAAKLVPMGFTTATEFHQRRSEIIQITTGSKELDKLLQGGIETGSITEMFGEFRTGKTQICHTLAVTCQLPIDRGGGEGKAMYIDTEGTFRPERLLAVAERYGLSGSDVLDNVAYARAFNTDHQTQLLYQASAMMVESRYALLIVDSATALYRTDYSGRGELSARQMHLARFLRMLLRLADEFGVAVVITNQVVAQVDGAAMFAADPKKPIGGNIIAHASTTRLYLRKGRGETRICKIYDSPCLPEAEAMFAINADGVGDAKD

RAD51 [2] = molecular target: T1, RAD51; assay: FLIM

Binder	Kd (RAD51 [1]) [nM]	further results
B1	116 ± 14	–
B2	138 ± 4	–
B3	–	binding result (RAD51 [2]): no binding
B4	188 ± 13	–
B5	413 ± 11	–
B6	936 ± 39	–
B7	–	binding result (RAD51 [1]): no binding
B8	–	binding result (RAD51 [2]): binds
